# Measurements published in patent publication US20200048360A1 (TRACON PHARMACEUTICALS, published 2020).
# Like-named read-outs stand apart in the source and are kept apart here.
# T1: human CD105 (R&D Systems, Catalog No. 1097-EN) (human, UniProt P17813 26-586)
# T1 construct: Captured on the plate by mouse anti-human CD105 (Southern Biotechnologies 9811-01); also called endoglin
# T1 sequence (looked up): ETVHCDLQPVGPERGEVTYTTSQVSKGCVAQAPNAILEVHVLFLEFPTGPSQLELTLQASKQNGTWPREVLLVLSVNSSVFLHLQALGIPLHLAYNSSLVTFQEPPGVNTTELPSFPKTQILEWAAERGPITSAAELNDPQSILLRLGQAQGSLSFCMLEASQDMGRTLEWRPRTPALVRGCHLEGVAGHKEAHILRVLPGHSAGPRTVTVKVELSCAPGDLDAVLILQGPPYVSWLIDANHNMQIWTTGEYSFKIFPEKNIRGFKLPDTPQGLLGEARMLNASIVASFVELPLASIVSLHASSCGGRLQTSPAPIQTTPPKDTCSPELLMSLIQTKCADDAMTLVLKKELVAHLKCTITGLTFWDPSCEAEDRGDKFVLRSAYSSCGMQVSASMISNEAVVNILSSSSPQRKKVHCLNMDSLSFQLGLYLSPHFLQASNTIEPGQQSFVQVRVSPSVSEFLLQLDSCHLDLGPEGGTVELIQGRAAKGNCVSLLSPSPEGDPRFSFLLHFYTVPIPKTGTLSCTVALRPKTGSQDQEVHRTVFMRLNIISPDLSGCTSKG
# Legend:
# [1] = target: T1, human CD105 (R&D Systems, Catalog No. …); assay: ELISA with OD450 falling against test antibody concentration (competition format of paragraph 712: biotinylated chimeric anti-CD105 on captured human CD105; the legend says only 'binding assay data')
# [2] = target: T1, human CD105 (R&D Systems, Catalog No. …); assay: as above; remark: listed apart in the source
# [3] = target: T1, human CD105 (R&D Systems, Catalog No. …); assay: competition ELISA on captured human CD105; competitor biotinylated chimeric anti-CD105
# Procedure: Antibodies were tested in a competition ELISA for binding to CD105 against biotinylated chimeric anti-CD105. Briefly, chimeric anti-CD105 was biotinylated using a micro-biotinylation kit (Sigma, Catalog No. BTAG-1KT) following the manufacturer's instructions. […] Binding of the biotinylated chimeric antibody was detected via streptavidin-HRP (Sigma, Catalog No. 55512) and TMB substrate (Sigma, Catalog No. T0440). OD450 nm values were measured on a Dynex MRX TCII plate reader. The results of the competition analysis are illustrated in FIGS. 7 and 8. […] To allow for comparisons within and between experiments, IC50 values of humanized or humanized/deimmunized variants were normalized against the reference antibody that was included on each plate to give a value for the fold difference. IC50 values are relative to chimeric anti-CD105 and are representative of three experiments. Summary ELISA data are presented in Table 1 and include antibody expression levels […]) as assayed in saturated static cultures.
# [4] = target: T1, human CD105 (R&D Systems, Catalog No. …); assay: ELISA with OD450 falling against test antibody concentration (competition format of paragraph 712: biotinylated chimeric anti-CD105 on captured human CD105; the legend says only 'binding assay data'); remark: listed apart in the source
Relative IC50 (fold of chimeric anti-endoglin antibody) [3],Binder,also measured
1.21 fold relative to chimeric,"VK2SSVH1S (antibody, V domains shown, IgG1 heavy chain, kappa light chain) VH: EVQLVESGGGLVKPGGSLRLSCAASGFTFSDAWMDWVRQAPGKGLEWVSEIRSKASNHATYYAESVKGRFTISRDDSKNTLYLQMNSLKTEDTAVYYCTRWRRFFDSWGQGTLVTVSS VL: DIQLTQSPSSLSASVGDRVTISCRASSSVSYMHWYQQKPGKAPKPWIYASSNLASGVPSRFSGSGSGTDYTLTISSLQPEDFATYYCQQWSSNPLTFGGGTKVEIK",
0.87 fold relative to chimeric,"VK2SAVH1Q (antibody, V domains shown, IgG1 heavy chain, kappa light chain) VH: EVQLVESGGGLVKPGGSLRLSCAASGFTFSDAWMDWVRQAPGKGLEWVGEIRSQASNHATYYAESVKGRFTISRDDSKNTLYLQMNSLKTEDTAVYYCTRWRRFFDSWGQGTLVTVSS VL: DIQLTQSPSSLSASVGDRVTISCRASSSVSYMHWYQQKPGKAPKPWAYATSNLASGVPSRFSGSGSGTDYTLTISSLQPEDFATYYCQQWSSNPLTFGGGTKVEIK",
0.77 fold relative to chimeric,"VK2SAVH1R (antibody, V domains shown, IgG1 heavy chain, kappa light chain) VH: EVQLVESGGGLVKPGGSLRLSCAASGFTFSDAWMDWVRQAPGKGLEWVGEIRSRASNHATYYAESVKGRFTISRDDSKNTLYLQMNSLKTEDTAVYYCTRWRRFFDSWGQGTLVTVSS VL: DIQLTQSPSSLSASVGDRVTISCRASSSVSYMHWYQQKPGKAPKPWAYATSNLASGVPSRFSGSGSGTDYTLTISSLQPEDFATYYCQQWSSNPLTFGGGTKVEIK",
1.03 fold relative to chimeric,"VK2SSVH1A2 (antibody, V domains shown, IgG1 heavy chain, kappa light chain) VH: EVQLVESGGGLVKPGGSLRLSCAASGFTFSDAWMDWVRQAPGKGLEWVGEARSKASNHATYYAESVKGRFTISRDDSKNTLYLQMNSLKTEDTAVYYCTRWRRFFDSWGQGTLVTVSS VL: DIQLTQSPSSLSASVGDRVTISCRASSSVSYMHWYQQKPGKAPKPWIYASSNLASGVPSRFSGSGSGTDYTLTISSLQPEDFATYYCQQWSSNPLTFGGGTKVEIK",
0.62 fold relative to chimeric,"VK2SSVH1R (antibody, V domains shown, IgG1 heavy chain, kappa light chain) VH: EVQLVESGGGLVKPGGSLRLSCAASGFTFSDAWMDWVRQAPGKGLEWVGEIRSRASNHATYYAESVKGRFTISRDDSKNTLYLQMNSLKTEDTAVYYCTRWRRFFDSWGQGTLVTVSS VL: DIQLTQSPSSLSASVGDRVTISCRASSSVSYMHWYQQKPGKAPKPWIYASSNLASGVPSRFSGSGSGTDYTLTISSLQPEDFATYYCQQWSSNPLTFGGGTKVEIK",
0.84 fold relative to chimeric,"VK2SAVH1A2 (antibody, V domains shown, IgG1 heavy chain, kappa light chain) VH: EVQLVESGGGLVKPGGSLRLSCAASGFTFSDAWMDWVRQAPGKGLEWVGEARSKASNHATYYAESVKGRFTISRDDSKNTLYLQMNSLKTEDTAVYYCTRWRRFFDSWGQGTLVTVSS VL: DIQLTQSPSSLSASVGDRVTISCRASSSVSYMHWYQQKPGKAPKPWAYATSNLASGVPSRFSGSGSGTDYTLTISSLQPEDFATYYCQQWSSNPLTFGGGTKVEIK",
0.96 fold relative to chimeric,"VK2SAVH1S (antibody, V domains shown, IgG1 heavy chain, kappa light chain) VH: EVQLVESGGGLVKPGGSLRLSCAASGFTFSDAWMDWVRQAPGKGLEWVSEIRSKASNHATYYAESVKGRFTISRDDSKNTLYLQMNSLKTEDTAVYYCTRWRRFFDSWGQGTLVTVSS VL: DIQLTQSPSSLSASVGDRVTISCRASSSVSYMHWYQQKPGKAPKPWAYATSNLASGVPSRFSGSGSGTDYTLTISSLQPEDFATYYCQQWSSNPLTFGGGTKVEIK",
1.21 fold relative to chimeric,"VK2SSVH1Q (antibody, V domains shown, IgG1 heavy chain, kappa light chain) VH: EVQLVESGGGLVKPGGSLRLSCAASGFTFSDAWMDWVRQAPGKGLEWVGEIRSQASNHATYYAESVKGRFTISRDDSKNTLYLQMNSLKTEDTAVYYCTRWRRFFDSWGQGTLVTVSS VL: DIQLTQSPSSLSASVGDRVTISCRASSSVSYMHWYQQKPGKAPKPWIYASSNLASGVPSRFSGSGSGTDYTLTISSLQPEDFATYYCQQWSSNPLTFGGGTKVEIK",

# The next lines start with the binder.
Binder,Relative IC50 (fold of chimeric anti-endoglin antibody) [3],also measured
"VK2AAVH1Q (antibody, V domains shown, IgG1 heavy chain, kappa light chain) VH: EVQLVESGGGLVKPGGSLRLSCAASGFTFSDAWMDWVRQAPGKGLEWVGEIRSQASNHATYYAESVKGRFTISRDDSKNTLYLQMNSLKTEDTAVYYCTRWRRFFDSWGQGTLVTVSS VL: DIQLTQSPSSLSASVGDRATITCRASSSVSYMHWYQQKPGKAPKPWAYATSNLASGVPSRFSGSGSGTDYTLTISSLQPEDFATYYCQQWSSNPLTFGGGTKVEIK",0.76 fold relative to chimeric,IC50 (read off the curve) [1]: ~0.1 µg/mL; IC50 (read off the curve) [2]: ~0.1 µg/mL
"VK2ASVH1Q (antibody, V domains shown, IgG1 heavy chain, kappa light chain) VH: EVQLVESGGGLVKPGGSLRLSCAASGFTFSDAWMDWVRQAPGKGLEWVGEIRSQASNHATYYAESVKGRFTISRDDSKNTLYLQMNSLKTEDTAVYYCTRWRRFFDSWGQGTLVTVSS VL: DIQLTQSPSSLSASVGDRATITCRASSSVSYMHWYQQKPGKAPKPWIYASSNLASGVPSRFSGSGSGTDYTLTISSLQPEDFATYYCQQWSSNPLTFGGGTKVEIK",1.04 fold relative to chimeric,
"VK2ASVH1S (antibody, V domains shown, IgG1 heavy chain, kappa light chain) VH: EVQLVESGGGLVKPGGSLRLSCAASGFTFSDAWMDWVRQAPGKGLEWVSEIRSKASNHATYYAESVKGRFTISRDDSKNTLYLQMNSLKTEDTAVYYCTRWRRFFDSWGQGTLVTVSS VL: DIQLTQSPSSLSASVGDRATITCRASSSVSYMHWYQQKPGKAPKPWIYASSNLASGVPSRFSGSGSGTDYTLTISSLQPEDFATYYCQQWSSNPLTFGGGTKVEIK",1.31 fold relative to chimeric,
"VK2SAVH1A (antibody, V domains shown, IgG1 heavy chain, kappa light chain) VH: EVQLVESGGGLVKPGGSLRLSCAASGFTFSDAWMDWVRQAPGKGLEWVAEIRSKASNHATYYAESVKGRFTISRDDSKNTLYLQMNSLKTEDTAVYYCTRWRRFFDSWGQGTLVTVSS VL: DIQLTQSPSSLSASVGDRVTISCRASSSVSYMHWYQQKPGKAPKPWAYATSNLASGVPSRFSGSGSGTDYTLTISSLQPEDFATYYCQQWSSNPLTFGGGTKVEIK",0.49 fold relative to chimeric,
"VK2ASVH1A (antibody, V domains shown, IgG1 heavy chain, kappa light chain) VH: EVQLVESGGGLVKPGGSLRLSCAASGFTFSDAWMDWVRQAPGKGLEWVAEIRSKASNHATYYAESVKGRFTISRDDSKNTLYLQMNSLKTEDTAVYYCTRWRRFFDSWGQGTLVTVSS VL: DIQLTQSPSSLSASVGDRATITCRASSSVSYMHWYQQKPGKAPKPWIYASSNLASGVPSRFSGSGSGTDYTLTISSLQPEDFATYYCQQWSSNPLTFGGGTKVEIK",1.41 fold relative to chimeric,
"VK2AAVH1R (antibody, V domains shown, IgG1 heavy chain, kappa light chain) VH: EVQLVESGGGLVKPGGSLRLSCAASGFTFSDAWMDWVRQAPGKGLEWVGEIRSRASNHATYYAESVKGRFTISRDDSKNTLYLQMNSLKTEDTAVYYCTRWRRFFDSWGQGTLVTVSS VL: DIQLTQSPSSLSASVGDRATITCRASSSVSYMHWYQQKPGKAPKPWAYATSNLASGVPSRFSGSGSGTDYTLTISSLQPEDFATYYCQQWSSNPLTFGGGTKVEIK",0.61 fold relative to chimeric,IC50 (read off the curve) [4]: ~0.1 µg/mL; IC50 (read off the curve) [2]: ~0.1 µg/mL
"VK2ASVH1R (antibody, V domains shown, IgG1 heavy chain, kappa light chain) VH: EVQLVESGGGLVKPGGSLRLSCAASGFTFSDAWMDWVRQAPGKGLEWVGEIRSRASNHATYYAESVKGRFTISRDDSKNTLYLQMNSLKTEDTAVYYCTRWRRFFDSWGQGTLVTVSS VL: DIQLTQSPSSLSASVGDRATITCRASSSVSYMHWYQQKPGKAPKPWIYASSNLASGVPSRFSGSGSGTDYTLTISSLQPEDFATYYCQQWSSNPLTFGGGTKVEIK",1.02 fold relative to chimeric,
